B1: CD9 antibody IgG1-LALA (mAb 40A746.2.3) (antibody)
heavy: not shown
light: DIQMTQTTSSLSASLGDRVTISCSASQGISNYLNWYQQKPDGNVKLLIYYTSSLHSGVPSRFSGSGSGTDYSLTISNLEPEDIATYYCQQYSKLPYTFGGGTKLEIKRTVAAPSVFIFPPSDEQLKSGTASVVCLLNNFYPREAKVQWKVDNALQSGNSQESVTEQDSKDSTYSLSSTLTLSKADYEKHKVYACEVTHQGLSSPVTKSFNRGEC
notes: also called chim-hu-IgG1-LALA
B2: CD9 antibody IgG4-SPLE (mAb 40A746.2.3) (antibody)
heavy: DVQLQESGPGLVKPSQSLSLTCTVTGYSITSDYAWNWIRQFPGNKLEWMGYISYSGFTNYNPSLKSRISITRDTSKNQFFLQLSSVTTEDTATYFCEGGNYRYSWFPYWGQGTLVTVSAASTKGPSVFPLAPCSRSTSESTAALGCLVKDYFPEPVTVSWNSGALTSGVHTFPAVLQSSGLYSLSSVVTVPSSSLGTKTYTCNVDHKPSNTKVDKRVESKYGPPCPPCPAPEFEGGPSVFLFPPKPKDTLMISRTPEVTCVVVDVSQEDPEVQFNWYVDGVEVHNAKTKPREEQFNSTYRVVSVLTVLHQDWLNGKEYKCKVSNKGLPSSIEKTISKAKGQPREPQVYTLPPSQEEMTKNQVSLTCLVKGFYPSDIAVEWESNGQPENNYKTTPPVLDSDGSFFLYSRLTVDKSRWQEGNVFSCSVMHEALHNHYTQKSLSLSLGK
light: B1 light
notes: also called chim-hu-IgG4-SPLE
B3: CD9 antibody IgG1-P329G (mAb 40A746.2.3) (antibody)
heavy: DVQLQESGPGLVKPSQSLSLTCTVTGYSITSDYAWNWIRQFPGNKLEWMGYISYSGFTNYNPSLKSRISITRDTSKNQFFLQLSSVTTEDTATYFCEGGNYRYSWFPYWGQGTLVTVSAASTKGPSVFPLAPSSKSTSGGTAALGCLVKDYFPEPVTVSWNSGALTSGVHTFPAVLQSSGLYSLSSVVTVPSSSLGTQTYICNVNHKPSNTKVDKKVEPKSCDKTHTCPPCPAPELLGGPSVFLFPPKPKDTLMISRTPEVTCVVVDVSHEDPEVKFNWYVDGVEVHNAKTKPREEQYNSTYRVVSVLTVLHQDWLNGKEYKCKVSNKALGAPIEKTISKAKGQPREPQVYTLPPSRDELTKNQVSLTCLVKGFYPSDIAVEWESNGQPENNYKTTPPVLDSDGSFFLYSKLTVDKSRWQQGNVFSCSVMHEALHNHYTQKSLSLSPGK
light: B1 light
notes: also called chim-hu-IgG-WT-P329G; TA IgG1 P329G

Key:
FcγRIIIA-V158 = target: T1, FcγRIIIA-V158 (human, UniProt P08637 17-208, limits assumed); experiment: SPR Biacore, antibody immobilised, receptor as analyte, FIG. 1e
T1 construct: Soluble analyte in SPR, 0 to 12800 nM; construct not described; also called FcγRIIIA receptor
Procedure: (§1) Binding affinities of different FcγRs towards immunoglobulins were measured by Surface Plasmon Resonance (SPR) using a Biacore T100 instrument (GE Healthcare) at 25° C.

FcγRI = target: T2, FcγRI (human, UniProt P12314 16-288, limits assumed); experiment: SPR Biacore, FIG. 1b
T2 construct: also called FcγR1; FcγRI receptor
Procedure: as §1

T2 sequence (P12314 16-288 limits assumed): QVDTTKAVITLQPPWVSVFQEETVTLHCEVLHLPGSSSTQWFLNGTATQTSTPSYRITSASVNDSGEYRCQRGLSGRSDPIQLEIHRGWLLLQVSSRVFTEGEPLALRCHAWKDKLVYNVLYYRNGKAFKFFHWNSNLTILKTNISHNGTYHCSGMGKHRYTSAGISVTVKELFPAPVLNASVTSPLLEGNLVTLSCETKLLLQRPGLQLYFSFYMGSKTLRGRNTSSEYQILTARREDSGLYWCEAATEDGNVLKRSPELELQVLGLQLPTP
T1 sequence (P08637 17-208 F176V limits assumed): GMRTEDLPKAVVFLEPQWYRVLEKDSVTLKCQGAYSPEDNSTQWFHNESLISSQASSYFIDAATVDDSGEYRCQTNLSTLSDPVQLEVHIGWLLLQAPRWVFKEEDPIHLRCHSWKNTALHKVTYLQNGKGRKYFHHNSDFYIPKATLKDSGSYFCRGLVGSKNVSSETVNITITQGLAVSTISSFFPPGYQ

binding result (FcγRIIIA-V158) | binding result (FcγRI) | Binder
binds | binds | B1
binds | binds | B2
– | binds | B3
